Data as given in patent publication US20180017550A1.

Target: human APC mutation cluster region fragment (codons 1,294-1,369) with N-terminal VSV tag, 4 glycine s (human) (UniProt P25054)
Sequence (P25054 other isoform, or with tags, fused parts or gaps limits assumed): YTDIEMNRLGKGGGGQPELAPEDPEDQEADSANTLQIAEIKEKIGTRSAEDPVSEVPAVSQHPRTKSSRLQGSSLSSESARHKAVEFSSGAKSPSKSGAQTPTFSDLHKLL

Substance: anti-VSV antibody conjugated to the Cy3 fluorophore (clone P5D4; Sigma-Aldrich, St. Louis, Mo.)
- signal to noise ratio: 179 :1
